Measured values as given in the DeepSol protein solubility set.

Test: soluble on expression in E. coli; label from the status in PepcDB or PDB records

Row | Sequence | soluble on expression in E. coli
1 | GPGSMSGIKIEEVISTTKKERVAAHSHVKGLGLNPDGTTKHIADGFVGQEKAREAAGIAVELIRSKKMAGRALLFAGPPGTGKTALALGIAKELGPKVPFCPMVGSEVYSAEVKKTEVLMENFRRAIGLRIKENKEVYEGEVTELRAEETDNPLGGYGKSISHVIITLKSQKGSKLLKLDAAIYESLEKEKVSVGDVIYIEASSGAVKRVGRSDAYIGDHDLEADEYVPIPKGDVHKKKEVIQDVTLHDLDMANAKPSQGQDALSIVSSMMRHKKTEVTEKLRQEINKVVNKYIDQGVAELVPGVLFIDEVHMLDIECFTYLNKALESTLAPVVIFATNRGSCRIRGTEIRAPHGMPTDLLDRLLIIRTMNYDVSEITSIVEIRAHVEGVKISEAALTKLGIIGESTSLRFVVQLLTPALIIAETNGREMLEEEDVDLVAELFKDGKASARQLQDHAEEYVYQ | soluble
2 | GPGSMSKYANPDYWEERYRSNDTTFDWYLTFDNLEPVLRPMLQPAEQIHVLVVGCGNSRLSPCMYEHLNVRKITNVDVSPTVISQMTRRYKGMDEMRWICCDLIHTAPDKLLTLLCPEDALFDFVIDKGLVDATLGGSNSFHNLYTLTKNLARVMKNGGRFLSVSYGAPETRIDHFRRRKLNFDVEHRTIEKSVFASGAAPTGSYHVYIMTKLGERQAVTAGAADDGALSGDTDDDDDFYDRFMTKANTTSADAARFD | soluble
3 | GPGSMSLASPSSLPPIALATQRLRTFAAQEEQAHGLTTSTALEEWATQSFEAETERINRELVQRRSQASVTFLPALYMRGRDPAADETTRLLHSTCKAFELDLRFKEIEKLDEMHAHLWTLLSAGDRTSISMEAYEQLLHDFNEWAAEHYGAQLLPPPSTVWDVSEDEDECILCRREVKEDDHEKSGGGNSSPSMSPLRPPVSLARPLSASTPPVLAATKAAPNDAPFTSGTRGASWDAVLQHVKRYRDQQRSDTSASASSFMRSHAHFEHLLRLAEDQPALGNVLYLCSVPPPRPDVQLFLSCPRNAERAVEIAAIYQTFAKQVSLVKCEAELIMWDSNNDGRLSEDEVENYVRDLAPRIAALQAMSKDMLPFYCCTVSRRLFWDLDPGNRGVLRIHSLLHSGIMDEWVSLQLMTEDDTQNWFGALVTQQLYNKFVLLDTRNTGTLNVENLRGYKKGLPTVLDDGLPPDVSPLCSLFIDRYFETNTLMTRSEMDYRKFVDFVIAVELLPQCSRPYFFWNILDMEGTGVLTPMIVNQFFRETHAKLVAAGLDVPSRETVVQEVFDLIEKAESLLITRDEFVRSPQAGLFVALLIDCLSFWTYENREQR | not soluble
4 | GPGSMSRTQTSSKSVPKNIAVYCRVRPPVPNEKGHTFQNISYDDSDSRAIAVARKSGTKALEKTYLFNRVFRPTATQKDVYETFAKGAVDAAFDGQHGVLFVYGQTGSGKTFTISNDEPNNEGVLQRSMRDIWNRIASDTANDYSCSVSYVQLYNEILTDLLDDAKGKVRIQMGSEGRGDVVMVSDSTGMAIEREVKDYKSTMACFQVGLARKEMASTSMNSTSSRSHTIFTLNIVKAKKVVAVTVGTEAEGPTIALEGRLVLCDLAGSERVSKTHAEGKTLDEATHINRSLLTLGKVVTALTDNAQHAPFRESKLTRILQYSLMGNGNTSIIVNISPSDDNTEESLSAILFGQRASQIKQDAKRHEVLDYKALYMQLMAELDNKNDKTLEEALEEERGVYEERISALDEEMKLLSDENAMLRNENKQLRQYVPADRLKLIDETPSSGVSGANGEVVSGGWAKVNQDLRKLVQQRDERLKVISDERVRLALVVAEEKRKCFQLAQKMRSFAMRYKMEREQSTQRQEELCTELATLKGTDYLSAVGSFDATASPGSPNYPRENEEFNDAESAQAQIRALRAERMELMVYQAKAANAIRKLVKERDAAQRKVA | soluble
5 | GPGSMTAAVDLEGVALHGHMKGVTMLKFNRDGDLLFSSAKDTNCSACCWQVKTGKLFGSYTTVGQVEGRTYDAAMVALDVNRESTLLATASAGEEVLLWSVESGALLGSVSRSLSSGASVGFSHDDTLMMVATKGRSSTNSAIQVYNVPFTVPKAGEDIAPVKTPFTTFSTFETPDTITWAAWGPTNETIYYSEGGYMNILDVEANKVIRSRQIHEDENEVINRFSWDPNYLALATASTDKTSHLIDFRDLATIQVYRSDVPVNDVSISPNADHVILGGGMDAASVTTQGGQSIFEVKFFHKVHGHQLGQLRCHFGTINAMSFHPDGRGFASASYDGLIKMYRFGDSYDSTPGAQPLWTL | not soluble
6 | GPGSMTAVSNAAAVQATSGANGGSAVVTFFTTTYSKPMPEQSFSVPLNVLPDGLNQLVQNVLGVEGQNFDFLYKDEYIGTTLFRFLQRRGISCEELLNIEYTPALQAKEGNLLPHDDWVSSVRAPYRNNAELLLTGSYDHCVRLWDGDSCLALGSFHREAVKEVALHPVAPASSKTGRKRTRLDGDFMFASASKDGSVAAWKLDSTSSHMQLLGSIQAHTDGVDSVAIAPGDGRLVATASWDTTVKVFNWEQMMEGDTVPSKKAPLVTFTDHSRPVLCSRFSAAHGAARLYSAGYDGHIKCLDTEAAQLQSQFKGDHPINRISVKPAGSSPAADLLLSACTDNRARLFDTRQKDVVKTFSGSCQWLYSVVWLWDAQEGDAEHSGGSLFAVASEDATVRVYDLRCTNTALLTLDAMHTDGVLDVTYVGQSIIASGGKDNKTRSFALSKEGLLS | not soluble
7 | GPGSTGASLGMMWKDKLNAMTKEEFTRYKRAGVMETDRKEARDYLKRGDGKTGLSVSRGTAKLAWMEERGYVELTGRVVDLGCGRGGWSYYAASRPHVMDVRAYTLGVGGHEVPRITESYGWNIVKFKSRVDIHTLPVERTDVIMCDVGESSPKWSVESERTIKILELLEKWKVKNPSADFVVKVLCPYSVEVMERLSVMQRKWGGGLVRNPYSRNSTHEMYFTSRAGGNIIGAVTACTERLLGRMARRDGPVVVPELNLGTGTR | soluble
8 | GPHMDAATLTYDTLRFAEFEDFPETSEPVWILGRKYSIFTEKDEILSDVASRLWFTYRKNFPAIGGTGPTSDTGWGCMLRCGQMIFAQALVCRHLGRDWRWTQRKRQPDSYFSVLNAFIDRKDSYYSIHQIAQMGVGEGKSIGQWYGPNTVAQVLKKLAVFDTWSSLAVHIAMDNTVVMEEIRRLCRTSVPCAGATAFPADSDRHCNGFPAGAEVTNRPSPWRPLVLLIPLRLGLTDINEAYVETLKHCFMMPQSLGVIGGKPNSAHYFIGYVGEELIYLDPHTTQPAVEPTDGCFIPDESFHCQHPPCRMSIAELDPSIAVGFFCKTEDDFNDWCQQVKKLSLLGGALPMFELVEQQPSHLACPDVLNLSLDSSDVERLERFFDSEDEDFEILSL | soluble
9 | GPLGSCSSPQVEIPTTYSPEKIAQLQVYVNPIAVARDGMEKRLQGLIADQNWVDTQTYIHGPLGQLRRDMLGLASSLLPKDQDKAKTLAKEVFGHLERLDAAAKDRNGSQAKIQYQEALADFDSFLNLLPQAS | soluble
10 | GPLGSKEQGVVRKAGWLFFKPLVTLQKERKLELVARRKWKQYWVTLKGCTLLFYETYGKNSTEQNSAPRCALFAEDSIVQSVPEHPKKEHVFCLSNSCGDVYLFQATSQTDLENWVTAIHSACASLFAKKHGKEDTVRLLKSQTRSLLQKIDMDSKMKKMAELQLSVVSDPKNRKAIENQIRQWEQNLEKFHMDLFRMRCYLASLQGGELPNPKSLLAATSRPSKLALGRLGVLSVSSFHALVCSRDDSTLRKRTLSLTQRGK | soluble
11 | GPLGSMDQSVAIQETLVEGEYCVIAVQGVLCKGDSRQSRLLGLVRYRLENDAQEHALFLYTHRRMAITGDDVSLDQIVPLSKDFMLEEVSPDGELYILGSDVTVQLNTAELKLVFQLPFGSHTRTFLQEVARACPGFDPETRDPEFEWLSRHTCAEPDAES | soluble
12 | GPLGSMDSPPEGYRRNVGICLMNNDKKIFAASRLDIPDAWQMPQGGIDEGEDPRNAAIRELREETGVTSAEVIAEVPYWLTYDFPPKVREKLNIQWGSDWKGQAQKWFLFKFTGQDQEINLLGDGSEKPEFGEWSWVTPEQLIDLTVEFKKPVYKEVLSVFAPHL | soluble
13 | GPQMLSANERLKNNFNILYNQIRQYPAYYFKVASNVPTYSDICQSFSVMYQGFQIVNHSGDVFIHACRENPQSKGDFVGDKFHISIAREQVPLAFQILSGLLFSEDSPIDKWKITDMNRVSQQSRVGIGAQFTLYVKSDQECSQYSALLLHKIRQFIMCLESNLLRSKIAPGEYPASDVRPEDWKYVSYRNELRSDRDGSERQEQMLREEPFYRLMIE | soluble
14 | GQLNVEHRQFLSQGLQGQSKGQSSVVVQPELYWDFQSGESSFTFTPFFRVDSLDDERTHCDIREALFLTYWDDYELRVGISKVFWGVTESAHLVDVVNQTDAVEAVDGEDKLGQPMVHFTAIKDWGAFHAMVLPYFRERTFAGQDGRLRTEPVISDNAIYESSREEKHIDVAFRYSKMLGDWDIGLSYLYGTNRDPYFRFEQGELKPYYALMSHFGIDVQGIVGDWLWKLESVYRDSYDHHVGVVTGFE | not soluble
15 | GQSLPSVSKEIRELSNRTEQQTSLSDRKESEAFALETVRMISDRTLYLFRLAEGRSWEADVRGRSWASRVLPIVHRLKHGGIPWKQYLSSDSLCMEARLYGKYDSVTGAYRRGVVSFRSDIPQRNKVDDLTALALLGENVYAEEFDFGNRQIFPNPIRREAEAFYTYRLDSLYEKDGITYRRIAFRGLSGLNHGTVTIDATHGQLAILEMRVMMKGVITESYRVELGEVEPGLFLPIGLSVVIDRNRLWASLHNGYSASISYPGEQLDKTVLPVYTPTDSSRYRLPDELPVAPVWAVRSSFGREDSSTYWKNVVVGRDHTLHQHVPWHRALAWGHKYRIGERWRLGNEGLVWALFYYNYADHLWLGQSLTAIYDMAPGIRWEIKPGLYYVTKRRKAVWTLDSKLYYSPPQRGLLQLSAGHRSFDLYSTRERIDQLTDLMMELLNGQGPTTRYDDKFVRLTNSIDLLPKLNVETSVMLAERNPLPHGET | not soluble
16 | GRLDHNVEAAMGDETKYARINANRSVSNDYQDGNGDSVHSSWERWNADLALGWKPTQDSWIELKGGKGNGEAAYAGRTMDGTQFQRESLGLHAEQKNLTDVIKKVEAQVDYSYNDHIMDNYKMRTPPMMPMAMEVTRRTLNARAAITTEWDRLNVISGVDSQRNKHAGNMYMRDANPIPPLDGDLRFESYGAFSEWTYRLNP | not soluble
17 | GSAAATGPSFWLGNETLKVPLALFALNRQRLCERLRKNPAVQAGSIVVLQGGEETQRYCTDTGVLFRQESFFHWAFGVTEPGCYGVIDVDTGKSTLFVPRLPASHATWMGKIHSKEHFKEKYAVDDVQYVDEIASVLTSQKPSVLLTLRGVNTDSGSVCREASFDGISKFEVNNTILHPEIVECRVFKTDMELEVLRYTNKISSEAHREVMKAVKVGMKEYELESLFEHYCYSRGGMRHSSYTCICGSGENSAVLHYGHAGAPNDRTIQNGDMCLFDMGGEYYCFASDITCSFPANGKFTADQKAVYEAVLRSSRAVMGAMKPGVWWPDMHRLADRIHLEELAHMGILSGSVDAMVQAHLGAVFMPHGLGHFLGIDVHDVGGYPEGVERIDEPGLRSLRTARHLQPGMVLTVEPGIYFIDHLLDEALADPARASFFNREVLQRFRGFGGVRIEEDVVVTDSGIELLTCVPRTVEEIEACMAGCDKAFTPFSGPK | soluble
18 | GSAAEVMKKYCSTCDISFNYVKTYLAHKQFYCKNKP | soluble
